Assay [1] concerns the target T1, ΔBRCA1/BARD1-wt heterodimeric complex (truncated BRCA1 residues 1 to 304 and full-length BARD1) (UniProt P38398 1-304; Q99728 1-777).
T1 construct: truncated BRCA1 spanning the RING domain, residues 1 to 304; full-length BARD1, wild type; also called BRCA1/BARD1 heterodimer
Put plainly: pull-down; ΔBRCA1/BARD1 (wt or Q564H) incubated with GST-CstF-50 and/or His-p97, immunoprecipitated with anti-BARD1 or preimmune sera; washes with buffer A (PBS, 0.01% Nonidet P-40, 0.04% BSA) including 300 mM NaCl; Western blot. The settings on record: both partners purified. Background: Immunoblotting shows a protein as a band on a membrane.

The next assay has as its target T2, His-Ub (UniProt P0CG48 1-76).
T2 construct: ubiquitin (Ub), the cut product of its precursor; also called ubiquitin; source: E. coli BL21, purified (Ni-agarose)
The assay can be described thus: pull-down; interaction assay with His-Ub and GST-CstF-50 as described previously (ref. 5); pellets and supernatants analysed by immunoblotting under denaturing PAGE. The note with it: both partners purified.

T1 sequence (P38398 1-304, stated change not applied, chain 1 of 2): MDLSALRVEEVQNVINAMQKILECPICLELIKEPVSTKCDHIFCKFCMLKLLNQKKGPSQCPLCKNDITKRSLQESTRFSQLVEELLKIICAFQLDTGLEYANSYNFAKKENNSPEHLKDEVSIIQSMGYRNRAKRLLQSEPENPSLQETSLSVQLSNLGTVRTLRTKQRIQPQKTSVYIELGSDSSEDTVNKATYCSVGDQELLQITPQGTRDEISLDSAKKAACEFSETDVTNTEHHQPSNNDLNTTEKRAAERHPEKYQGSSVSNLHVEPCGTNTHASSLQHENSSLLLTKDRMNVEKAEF
T1 sequence (Q99728 whole entry, stated change not applied, chain 2 of 2, the tested form may be a part): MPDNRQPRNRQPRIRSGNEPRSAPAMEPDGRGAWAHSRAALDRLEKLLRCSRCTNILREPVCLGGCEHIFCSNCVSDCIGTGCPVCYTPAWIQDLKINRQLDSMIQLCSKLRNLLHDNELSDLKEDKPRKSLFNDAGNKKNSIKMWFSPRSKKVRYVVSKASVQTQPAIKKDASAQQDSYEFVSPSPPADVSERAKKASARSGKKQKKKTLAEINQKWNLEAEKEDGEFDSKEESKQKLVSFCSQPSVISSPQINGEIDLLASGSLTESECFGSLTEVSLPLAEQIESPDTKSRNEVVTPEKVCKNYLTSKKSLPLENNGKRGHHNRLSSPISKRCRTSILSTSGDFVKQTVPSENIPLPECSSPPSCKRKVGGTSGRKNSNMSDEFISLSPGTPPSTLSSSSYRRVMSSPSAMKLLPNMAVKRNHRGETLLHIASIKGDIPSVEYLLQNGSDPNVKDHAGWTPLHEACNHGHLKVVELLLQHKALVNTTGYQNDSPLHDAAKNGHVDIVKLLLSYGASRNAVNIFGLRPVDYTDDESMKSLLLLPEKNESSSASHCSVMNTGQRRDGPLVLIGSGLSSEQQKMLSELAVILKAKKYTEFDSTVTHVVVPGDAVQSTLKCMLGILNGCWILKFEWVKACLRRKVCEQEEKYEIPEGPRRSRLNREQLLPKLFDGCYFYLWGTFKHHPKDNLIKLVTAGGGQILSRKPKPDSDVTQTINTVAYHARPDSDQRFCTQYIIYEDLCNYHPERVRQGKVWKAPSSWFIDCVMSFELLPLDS

B1: GST-CstF-50 (natural protein, UniProt Q05048 1-431, looked up)
chain: MYRTKVGLKDRQQLYKLIISQLLYDGYISIANGLINEIKPQSVCAPSEQLLHLIKLGMENDDTAVQYAIGRSDTVAPGTGIDLEFDADVQTMSPEASEYETCYVTSHKGPCRVATYSRDGQLIATGSADASIKILDTERMLAKSAMPIEVMMNETAQQNMENHPVIRTLYDHVDEVTCLAFHPTEQILASGSRDYTLKLFDYSKPSAKRAFKYIQEAEMLRSISFHPSGDFILVGTQHPTLRLYDINTFQCFVSCNPQDQHTDAICSVNYNSSANMYVTGSKDGCIKLWDGVSNRCITTFEKAHDGAEVCSAIFSKNSKYILSSGKDSVAKLWEISTGRTLVRYTGAGLSGRQVHRTQAVFNHTEDYVLLPDERTISLCCWDSRTAERRNLLSLGHNNIVRCIVHSPTNPGFMTCSDDFRARFWYRRSTTD
notes: CstF-50 (cleavage stimulation factor 50), recombinant; also called glutathione S-transferase (GST)-CstF-50; source: E. coli BL21, purified (glutathione-agarose)
In the case of B1, the binding result (in assay [1]; in the assay with His-Ub) was “binds” throughout.

Values taken from article PMC5789026, “mRNA Processing Factor CstF-50 and Ubiquitin Escort Factor p97 Are BRCA1/BARD1 Cofactors Involved in Chromatin Remodeling during the DNA Damage Response” (Molecular and Cellular Biology, 2017).
